The results in this text go back to patent US20130089544A1 (AstraZeneca / MedImmune, published 2013).

Changes are numbered by the printed parent chain.

B1: monoclonal antibody 1.100.1 (antibody, V domains shown)
VH: EVQLVESGGGLVKPGGSLRLSCAASGFTFSSYSMNWVRQAPGKGLEWVSSISSSSSYIYYADSVKGRFTISRDNAKNSLYLQMNSLRAEDTAVYYCARGGDGYNYYYFDYWGQGTLVTVSS
VL: DIVMTQSPDSLAVSLGERATITCKSSQSVFFRSNNKNCLAWYQQRPGQPPNLLIYWASTRESGVPDRFSGSGCGTDFTLTISSLQAEDVAVYYCQQYFGSPFTFGPGTKVDIK
notes: Fully human IgG (gamma/kappa) from a XenoMouse XM3B-3 hybridoma; constant regions not tied to it; also called 1.100.2; 1.100.3
B2: monoclonal antibody 1.39 (antibody, V domains shown)
VH: B1 VH
VL: B1 VL with T59S, C73S, T78A, A86T
notes: Fully human IgG (gamma/kappa) from a XenoMouse XM3B-3 hybridoma; constant regions not tied to it; also called 1.39.1; 1.39.2
B3: monoclonal antibody 1.18.1 (antibody, V domains shown)
VH: B1 VH with R87S, Y95S
VL: B1 VL with D9G, A12V, P49S, C73S
notes: Fully human IgG (gamma/kappa) from a XenoMouse XM3B-3 hybridoma; constant regions not tied to it
B4: monoclonal antibody 1.14.1 (antibody, V domains shown)
VH: B1 VH
VL: B1 VL with A40T, C73S, S82N, S83N
notes: as for B3

The first assay deals with T1, human ErbB2, full length, on cells (human, UniProt P04626 23-1255). The assay is described as follows: cell-based or functional assay.
Take B1: the “N1 % Inhibition @40 µg/ml, BT474 cell proliferation” value stood at 35%; the “N1 EC50 (ng/ml), inhibition of BT474 cell proliferation” value stood at 169 ng/mL; the “N2 % Inhibition @40 µg/ml, BT474 cell proliferation” value came out at 32%; the “N2 EC50 (ng/ml), inhibition of BT474 cell proliferation” value was determined as 91.1 ng/mL.
For B2, in that order: 29%, 156 ng/mL, 40% and 42.3 ng/mL.
For B3, in that order: 34%, 38.1 ng/mL, 39% and 28.2 ng/mL.
As for B4, the “N1 % Inhibition @40 µg/ml, BT474 cell proliferation” value is 38%; the “N1 EC50 (ng/ml), inhibition of BT474 cell proliferation” value is 136 ng/mL; the “N2 % Inhibition @40 µg/ml, BT474 cell proliferation” value came to 39%; the “N2 EC50 (ng/ml), inhibition of BT474 cell proliferation” value worked out at 63 ng/mL.

The next assay has as its target T1, human ErbB2, full length, on cells. The assay is described as follows: cell-based or functional assay. This is another data set of the same source.
Turning to B1, the “% inhibition @36 µg/ml, SKBR3 cell proliferation” value (shortened to “% inhibition @36 µg/ml”) was 54% and the “EC50 (ng/ml), inhibition of SKBR3 cell proliferation” value is 61.3 ng/mL.
Consider B2, for which the “% inhibition @36 µg/ml” value was determined as 41% and the “EC50 (ng/ml), inhibition of SKBR3 cell proliferation” value is 68.9 ng/mL.
On the same counts, the results for B3 are 46% and 26.3 ng/mL.
As to B4, the “% inhibition @36 µg/ml” value was 52% and the “EC50 (ng/ml), inhibition of SKBR3 cell proliferation” value came out at 35.7 ng/mL.

A further assay has as its target T2, human ErbB2 ECD-myc/His fusion protein (human, UniProt P04626 23-652).
T2 construct: Made in-house in 293T cells; also called hErbB2(ECD)/cMyc-His; huErbB2 (ECD)/c-myc-His; not shown: c-myc/His tag of the pSecTag2Hygro vector
The assay can be described thus: limited antigen ELISA, 31 ng/ml ErbB2 ECD-myc/His coated, supernatant 1:25. As for the experimental part:
[…] […] Antigen-coated plates were washed three times, blocked with 1% non-fat skim milk/PBS for at least 30 minutes at room temperature, and then washed again three times. Each hybridoma line sample was titrated in 1% non-fat skim-milk/PBS 1:3 for 7 points starting from a 1:25 dilution. […] The next day, plates were washed three times and incubated with 50 μl of 400 ng/ml immunopure Goat anti-human IgG (Fc)-HRP (Pierce catalog #31416) for 1 hour at room temperature. Then, the plates were extensively washed and pat dried on paper towel to remove residual HRP in wells. HRP substrate TMB (enhanced K-blue TMB, Neogen catalog #308177) was added to each well and incubated for 30 min. The reaction was stopped by addition of 1N HCl. Optical density at 450 nm was read on a microplate reader (Titerteck Multiskan Ascent).
In general terms: In an ELISA, binding on a coated surface is turned into a signal by an enzyme label.
In the case of B1, the “LA at 31 ng/ml (OD)” value stood at 3.54 OD 450 nm.
The same measure, in the same setting: the result for B2 reads 2.57 OD 450 nm; that for B3, 3.03 OD 450 nm.
Same read-out and setting: in the case of B4 it was 3.99 OD 450 nm.

The target of the next assay is T2, human ErbB2 ECD-myc/His fusion protein. The assay is described as follows: SPR, Biacore 2000 medium resolution; mAb captured on goat anti-human IgG, ErbB2(ECD)-cMyc/His injected; 1:1 fit. On the procedure: The binding affinity of eight of the anti-ErbB2 antibodies was measured by medium resolution Biacore. All experiments were performed using a Biacore 2000 instrument.
First, 12 high-density goat α-human IgG antibody surfaces over three CM5 Biacore chips were prepared using routine amine coupling. […] Before each antigen injection cycle, each mAb was captured for six to nine seconds at a 100 μL/min flow rate. A 2-minute wash step followed each capture injection to stabilize each mAb baseline. […] All samples were randomly injected with several mAb capture/buffer inject cycles interspersed for double referencing. […] A flow rate of 100 μL/min. was used for all injection cycles. The data was fit to a 1:1 interaction model using CLAMP.
A general note: SPR reads the build-up and loss of mass on a sensor chip optically.
On to B1, for which the Kd was found to be 2.9 nM, the koff was 0.000301 s⁻¹ and the kon stood at 104000 M⁻¹ s⁻¹.
For B2, in that order: 2 nM, 0.000236 s⁻¹ and 115000 M⁻¹ s⁻¹.
For B3, in that order: 3 nM, 0.000302 s⁻¹ and 100000 M⁻¹ s⁻¹.
As to B4, the Kd turned out to be 2.5 nM, the koff was determined as 0.000256 s⁻¹ and the kon was determined as 102000 M⁻¹ s⁻¹.

Another assay concerns the target T1, human ErbB2, full length, on cells. The assay can be described thus: cell-based or functional assay. The source holds these as a separate data set.
As for B1, the “EC50 (ng/ml) n1, inhibition of Heregulin-induced ErbB2 phosphorylation in MCF7 cells” value came out at 39.9 ng/mL and the “EC50 (ng/ml) n2, inhibition of Heregulin-induced ErbB2 phosphorylation in MCF7 cells” value came to 33.7 ng/mL.
For B2, in that order: 46.9 ng/mL and 26.3 ng/mL.
Regarding B3, the “EC50 (ng/ml) n1, inhibition of Heregulin-induced ErbB2 phosphorylation in MCF7 cells” value amounted to 4.2 ng/mL and the “EC50 (ng/ml) n2, inhibition of Heregulin-induced ErbB2 phosphorylation in MCF7 cells” value is 10.8 ng/mL.
On the same counts, the results for B4 are 33.7 ng/mL and 22.9 ng/mL.

Another assay shares this target. The assay can be described thus: cell-based or functional assay. This is another data set of the same source.
As for B1, the “1 hr pTyr inhibition % (Heregulin-induced ErbB2 phosphorylation in MCF7 cells, hybridoma supernatant)” value (“1 hr pTyr inhibition %” below) was found to be 95% and the “24 hr pTyr inhibition % (Heregulin-induced ErbB2 phosphorylation in MCF7 cells, hybridoma supernatant)” value (“24 hr pTyr inhibition %” below) was determined as 95%.
Turning to B2, the “1 hr pTyr inhibition %” value was 82% and the “24 hr pTyr inhibition %” value is 99%.
On to B3, for which the “1 hr pTyr inhibition %” value worked out at 85% and the “24 hr pTyr inhibition %” value was determined as 96%.
On the same counts, the results for B4 are 103% and 100%.

For a further assay the target is unchanged. The assay is described as follows: cell-based or functional assay. The source holds these as a separate data set.
Take B1: the “% Inhibition @10 µg/ml, Heregulin-induced MCF7 cell proliferation” value is 95% and the “EC50 (ng/ml), inhibition of Heregulin-induced MCF7 cell proliferation” value came out at 2040 ng/mL.
On the same counts, the results for B2 are 89% and 479 ng/mL.
Take B3: the “% Inhibition @10 µg/ml, Heregulin-induced MCF7 cell proliferation” value is 94% and the “EC50 (ng/ml), inhibition of Heregulin-induced MCF7 cell proliferation” value worked out at 415 ng/mL.
Consider B4, for which the “% Inhibition @10 µg/ml, Heregulin-induced MCF7 cell proliferation” value came out at 96% and the “EC50 (ng/ml), inhibition of Heregulin-induced MCF7 cell proliferation” value turned out to be 640 ng/mL.

The target in another assay is T2, human ErbB2 ECD-myc/His fusion protein. The assay is described as follows: SPR, Biacore T100 high resolution; mAb captured on goat anti-human IgG, hHer-2(ECD)cMyc injected; 1:1 fit. On the procedure: All experiments were performed using a Biacore T100 instrument. First, a high-density goat α human IgG antibody (Caltag H10500) surface was prepared over two CM5 Biacore chips using routine amine coupling. Each mAb was diluted in HBS-P running buffer containing 100 μg/ml Bovine serum albumin (BSA).
A capture level protocol was developed for all five mAbs. Before each antigen injection cycle, each mAb was captured for 15 to 30 seconds at a 20 μL/min flow rate. A 5-minute wash step followed each capture injection to stabilize each mAb baseline. […] The samples were prepared in the running buffer described above. All samples were randomly injected with several mAb capture/buffer inject cycles interspersed for double referencing. […] A flow rate of 50 μL/min. was used for all injection cycles.
All sensorgram data were fit to a 1:1 interaction model using CLAMP.
The molecule B2 returned a Kd of 13.4 nM, a koff of 0.000214 s⁻¹ and a kon of 16000 M⁻¹ s⁻¹.

The target of another assay is T1, human ErbB2, full length, on cells. The assay can be described thus: cell-based or functional assay. This is another data set of the same source.
With B1, the “% Inhibition @10 µg/ml (n1), ErbB2 phosphorylation in BT474 cells at 48 hours” value (“% Inhibition @10 µg/ml (n1)” for short) was determined as 37% and the “% Inhibition @10 µg/ml (n2), ErbB2 phosphorylation in BT474 cells at 48 hours” value (“% Inhibition @10 µg/ml (n2)” below) stood at 26%.
B2: the “% Inhibition @10 µg/ml (n1)” value is 37% and the “% Inhibition @10 µg/ml (n2)” value amounted to 26%.
On the same counts, the results for B3 are 24% and 33%.
As to B4, the “% Inhibition @10 µg/ml (n1)” value turned out to be 37% and the “% Inhibition @10 µg/ml (n2)” value stood at 45%.

A word on the Kd: it is the free concentration of one partner at which half of the binding sites on the other are occupied at equilibrium, for simple one-to-one binding. A high value points to a looser complex. A word on the koff: it is the rate constant with which the complex falls apart. The kon is a measure of how fast the partners come together. A low value points to slow association.
